In test [1] the target is Ylehd (epoxide hydrolase with promiscuous haloalkane dehalogenase activity from Yarrowia lipolytica NCIM 3589) (Yarrowia lipolytica NCIM 3589). Briefly: SEC; Superdex S200 10/300GL equilibrated with 50 mM sodium acetate buffer pH 4.5; mass from calibration with proteins of known molecular mass. In general terms: SEC sorts molecules by how far they enter the pores of the column.

Test [2] has the same target. Briefly: SEC; Superdex S200 10/300GL equilibrated with 50 mM Tris-sulphate buffer pH 8.0; mass from calibration with proteins of known molecular mass.
In test [3] the target is T1, Ylehd (Yarrowia lipolytica, UniProt Q6C598).
T1 construct: gene YALI0_E19899g; full-length ORF in pET28a, His-tagged, E. coli BL21AI; 352 amino acids; 43 kDa monomer; likely dimer at pH 8.0 (EH), tetramer at pH 4.5 (HLD)
The test can be described thus: spectrophotometric residual epoxide assay, […] nm. The class given is biochemical. The following applies: epoxide hydrolase activity; 50 mM Tris-sulphate, pH 8.0, 30 °C.

In general, stoichiometry N refers to a count of units in the complex or per binding partner. By Km is commonly meant the substrate concentration at which the rate is half of its maximum.

On to “Ylehd (epoxide hydrolase with promiscuous haloalkane dehalogenase activity from Yarrowia lipolytica NCIM 3589) (enzyme)”, for which the stoichiometry N in test [1] worked out at 4; in test [2], 2.

Regarding `CCCCCCC1CO1` (stereo not drawn) [1,2-Epoxyoctane], the Km in test [3] is 500 ± 45 µM.

For the origin of these results see article PMC5605520, “Ylehd, an epoxide hydrolase with promiscuous haloalkane dehalogenase activity from tropical marine yeast Yarrowia lipolytica is induced upon xenobiotic stress” (Scientific Reports, 2017).
